Test results: publication PMC12416549 (2024)

Biological target: T1, TNFR1 (Homo sapiens, UniProt P19438)
T1 chain: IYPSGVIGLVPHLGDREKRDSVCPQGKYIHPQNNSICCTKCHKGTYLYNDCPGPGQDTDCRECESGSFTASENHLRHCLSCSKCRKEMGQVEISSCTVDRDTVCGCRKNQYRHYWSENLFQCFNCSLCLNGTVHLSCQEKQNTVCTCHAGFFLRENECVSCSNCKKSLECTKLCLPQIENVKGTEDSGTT
Assay: yeast display SC50

B1: K56W (designed binder)
chain: SMEEEVEKAAKEYEKKKKEAIEKHLEKLKAKDKEAAERFLKELEEAAKEYAKDEAWTMSEEEAKRRAKKYKEKVLLSELSEEEQKEIKEAEEKLVRTILKYVEEAAK
- apparent Kd (screen): 11.4 nM

B2: K52Q (designed binder)
chain: SMEEEVEKAAKEYEKKKKEAIEKHLEKLKAKDKEAAERFLKELEEAAKEYAQDEAKTMSEEEAKRRAKKYKEKVLLSELSEEEQKEIKEAEEKLVRTILKYVEEAAK
- apparent Kd (screen): 0.718 nM

B3: K85E (designed binder)
chain: SMEEEVEKAAKEYEKKKKEAIEKHLEKLKAKDKEAAERFLKELEEAAKEYAKDEAKTMSEEEAKRRAKKYKEKVLLSELSEEEQEEIKEAEEKLVRTILKYVEEAAK
- apparent Kd (screen): 0.446 nM

B4: R65I (designed binder)
chain: SMEEEVEKAAKEYEKKKKEAIEKHLEKLKAKDKEAAERFLKELEEAAKEYAKDEAKTMSEEEAKIRAKKYKEKVLLSELSEEEQKEIKEAEEKLVRTILKYVEEAAK
- apparent Kd (screen): 1.4 nM

B5: K56R (designed binder)
chain: SMEEEVEKAAKEYEKKKKEAIEKHLEKLKAKDKEAAERFLKELEEAAKEYAKDEARTMSEEEAKRRAKKYKEKVLLSELSEEEQKEIKEAEEKLVRTILKYVEEAAK
- apparent Kd (screen): 1.54 nM

B6: E26C (designed binder)
chain: SMEEEVEKAAKEYEKKKKEAIEKHLCKLKAKDKEAAERFLKELEEAAKEYAKDEAKTMSEEEAKRRAKKYKEKVLLSELSEEEQKEIKEAEEKLVRTILKYVEEAAK
- apparent Kd (screen): 0.49 nM

B7: V74I (designed binder)
chain: SMEEEVEKAAKEYEKKKKEAIEKHLEKLKAKDKEAAERFLKELEEAAKEYAKDEAKTMSEEEAKRRAKKYKEKILLSELSEEEQKEIKEAEEKLVRTILKYVEEAAK
- apparent Kd (screen): 0.446 nM

B8: A47D (designed binder)
chain: SMEEEVEKAAKEYEKKKKEAIEKHLEKLKAKDKEAAERFLKELEEADKEYAKDEAKTMSEEEAKRRAKKYKEKVLLSELSEEEQKEIKEAEEKLVRTILKYVEEAAK
- apparent Kd (screen): 1.16 nM

B9: K23G (designed binder)
chain: SMEEEVEKAAKEYEKKKKEAIEGHLEKLKAKDKEAAERFLKELEEAAKEYAKDEAKTMSEEEAKRRAKKYKEKVLLSELSEEEQKEIKEAEEKLVRTILKYVEEAAK
- apparent Kd (screen): 0.446 nM

B10: K107F (designed binder)
chain: SMEEEVEKAAKEYEKKKKEAIEKHLEKLKAKDKEAAERFLKELEEAAKEYAKDEAKTMSEEEAKRRAKKYKEKVLLSELSEEEQKEIKEAEEKLVRTILKYVEEAAF
- apparent Kd (screen): 3 nM

B11: T57E (designed binder)
chain: SMEEEVEKAAKEYEKKKKEAIEKHLEKLKAKDKEAAERFLKELEEAAKEYAKDEAKEMSEEEAKRRAKKYKEKVLLSELSEEEQKEIKEAEEKLVRTILKYVEEAAK
- apparent Kd (screen): 3 nM

B12: E91H (designed binder)
chain: SMEEEVEKAAKEYEKKKKEAIEKHLEKLKAKDKEAAERFLKELEEAAKEYAKDEAKTMSEEEAKRRAKKYKEKVLLSELSEEEQKEIKEAHEKLVRTILKYVEEAAK
- apparent Kd (screen): 4.39 nM

B13: K69F (designed binder)
chain: SMEEEVEKAAKEYEKKKKEAIEKHLEKLKAKDKEAAERFLKELEEAAKEYAKDEAKTMSEEEAKRRAKFYKEKVLLSELSEEEQKEIKEAEEKLVRTILKYVEEAAK
- apparent Kd (screen): 0.869 nM

B14: R65P (designed binder)
chain: SMEEEVEKAAKEYEKKKKEAIEKHLEKLKAKDKEAAERFLKELEEAAKEYAKDEAKTMSEEEAKPRAKKYKEKVLLSELSEEEQKEIKEAEEKLVRTILKYVEEAAK
- apparent Kd (screen): 20.2 nM

B15: E44Y (designed binder)
chain: SMEEEVEKAAKEYEKKKKEAIEKHLEKLKAKDKEAAERFLKELYEAAKEYAKDEAKTMSEEEAKRRAKKYKEKVLLSELSEEEQKEIKEAEEKLVRTILKYVEEAAK
- apparent Kd (screen): 1.54 nM

B16: E82W (designed binder)
chain: SMEEEVEKAAKEYEKKKKEAIEKHLEKLKAKDKEAAERFLKELEEAAKEYAKDEAKTMSEEEAKRRAKKYKEKVLLSELSEWEQKEIKEAEEKLVRTILKYVEEAAK
- apparent Kd (screen): 0.539 nM

B17: E5H (designed binder)
chain: SMEEHVEKAAKEYEKKKKEAIEKHLEKLKAKDKEAAERFLKELEEAAKEYAKDEAKTMSEEEAKRRAKKYKEKVLLSELSEEEQKEIKEAEEKLVRTILKYVEEAAK
- apparent Kd (screen): 0.446 nM

B18: T57S (designed binder)
chain: SMEEEVEKAAKEYEKKKKEAIEKHLEKLKAKDKEAAERFLKELEEAAKEYAKDEAKSMSEEEAKRRAKKYKEKVLLSELSEEEQKEIKEAEEKLVRTILKYVEEAAK
- apparent Kd (screen): 1.27 nM

B19: L99S (designed binder)
chain: SMEEEVEKAAKEYEKKKKEAIEKHLEKLKAKDKEAAERFLKELEEAAKEYAKDEAKTMSEEEAKRRAKKYKEKVLLSELSEEEQKEIKEAEEKLVRTISKYVEEAAK
- apparent Kd (screen): 11.4 nM

B20: E14A (designed binder)
chain: SMEEEVEKAAKEYAKKKKEAIEKHLEKLKAKDKEAAERFLKELEEAAKEYAKDEAKTMSEEEAKRRAKKYKEKVLLSELSEEEQKEIKEAEEKLVRTILKYVEEAAK
- apparent Kd (screen): 3 nM

B21: D32R (designed binder)
chain: SMEEEVEKAAKEYEKKKKEAIEKHLEKLKAKRKEAAERFLKELEEAAKEYAKDEAKTMSEEEAKRRAKKYKEKVLLSELSEEEQKEIKEAEEKLVRTILKYVEEAAK
- apparent Kd (screen): 3.99 nM

B22: L94K (designed binder)
chain: SMEEEVEKAAKEYEKKKKEAIEKHLEKLKAKDKEAAERFLKELEEAAKEYAKDEAKTMSEEEAKRRAKKYKEKVLLSELSEEEQKEIKEAEEKKVRTILKYVEEAAK
- apparent Kd (screen): 1.4 nM

B23: V95D (designed binder)
chain: SMEEEVEKAAKEYEKKKKEAIEKHLEKLKAKDKEAAERFLKELEEAAKEYAKDEAKTMSEEEAKRRAKKYKEKVLLSELSEEEQKEIKEAEEKLDRTILKYVEEAAK
- apparent Kd (screen): 5.84 nM

B24: K68H (designed binder)
chain: SMEEEVEKAAKEYEKKKKEAIEKHLEKLKAKDKEAAERFLKELEEAAKEYAKDEAKTMSEEEAKRRAHKYKEKVLLSELSEEEQKEIKEAEEKLVRTILKYVEEAAK
- apparent Kd (screen): 1.4 nM

B25: L43F (designed binder)
chain: SMEEEVEKAAKEYEKKKKEAIEKHLEKLKAKDKEAAERFLKEFEEAAKEYAKDEAKTMSEEEAKRRAKKYKEKVLLSELSEEEQKEIKEAEEKLVRTILKYVEEAAK
- apparent Kd (screen): 13.8 nM

B26: D53H (designed binder)
chain: SMEEEVEKAAKEYEKKKKEAIEKHLEKLKAKDKEAAERFLKELEEAAKEYAKHEAKTMSEEEAKRRAKKYKEKVLLSELSEEEQKEIKEAEEKLVRTILKYVEEAAK
- apparent Kd (screen): 1.69 nM

B27: R65W (designed binder)
chain: SMEEEVEKAAKEYEKKKKEAIEKHLEKLKAKDKEAAERFLKELEEAAKEYAKDEAKTMSEEEAKWRAKKYKEKVLLSELSEEEQKEIKEAEEKLVRTILKYVEEAAK
- apparent Kd (screen): 11.4 nM

B28: R65T (designed binder)
chain: SMEEEVEKAAKEYEKKKKEAIEKHLEKLKAKDKEAAERFLKELEEAAKEYAKDEAKTMSEEEAKTRAKKYKEKVLLSELSEEEQKEIKEAEEKLVRTILKYVEEAAK
- apparent Kd (screen): 2.05 nM

B29: E91W (designed binder)
chain: SMEEEVEKAAKEYEKKKKEAIEKHLEKLKAKDKEAAERFLKELEEAAKEYAKDEAKTMSEEEAKRRAKKYKEKVLLSELSEEEQKEIKEAWEKLVRTILKYVEEAAK
- apparent Kd (screen): 6.43 nM

B30: K64C (designed binder)
chain: SMEEEVEKAAKEYEKKKKEAIEKHLEKLKAKDKEAAERFLKELEEAAKEYAKDEAKTMSEEEACRRAKKYKEKVLLSELSEEEQKEIKEAEEKLVRTILKYVEEAAK
- apparent Kd (screen): 0.79 nM

B31: K8R (designed binder)
chain: SMEEEVERAAKEYEKKKKEAIEKHLEKLKAKDKEAAERFLKELEEAAKEYAKDEAKTMSEEEAKRRAKKYKEKVLLSELSEEEQKEIKEAEEKLVRTILKYVEEAAK
- apparent Kd (screen): 0.869 nM

B32: L99I (designed binder)
chain: SMEEEVEKAAKEYEKKKKEAIEKHLEKLKAKDKEAAERFLKELEEAAKEYAKDEAKTMSEEEAKRRAKKYKEKVLLSELSEEEQKEIKEAEEKLVRTIIKYVEEAAK
- apparent Kd (screen): 2.05 nM

B33: L76V (designed binder)
chain: SMEEEVEKAAKEYEKKKKEAIEKHLEKLKAKDKEAAERFLKELEEAAKEYAKDEAKTMSEEEAKRRAKKYKEKVLVSELSEEEQKEIKEAEEKLVRTILKYVEEAAK
- apparent Kd (screen): 1.4 nM

B34: E5L (designed binder)
chain: SMEELVEKAAKEYEKKKKEAIEKHLEKLKAKDKEAAERFLKELEEAAKEYAKDEAKTMSEEEAKRRAKKYKEKVLLSELSEEEQKEIKEAEEKLVRTILKYVEEAAK
- apparent Kd (screen): 0.49 nM

B35: A46W (designed binder)
chain: SMEEEVEKAAKEYEKKKKEAIEKHLEKLKAKDKEAAERFLKELEEWAKEYAKDEAKTMSEEEAKRRAKKYKEKVLLSELSEEEQKEIKEAEEKLVRTILKYVEEAAK
- apparent Kd (screen): 2.25 nM
